Data: publication PMC9266650

Key:
[1] = target: T148-ADP-ribosylated-actin (100% TccC3-ADP-ribosylated actin) (not stated (purified from rabbit or chicken skeletal muscle)) (UniProt P68135); test: fluorescence polarisation
[2] = target: Skeletal actin, unmodified (0% ADPR-actin control) (not stated (purified from rabbit or chicken skeletal muscle)) (UniProt P68135)

fold reduction of affinity against unmodified actin [1]: 6.4 fold
time at which 50% of actin is polymerized (t1/2); 2.5 µM pyrene-labeled (5%) G-actin, 0% modified, with 2.5 µM TMSB4 [2]: 2.04 h
Substance: Thymosin-β4 (peptide)
